This test has as its target T1, soluble human FcRn complexed with β2-microglobulin (human, UniProt P61769 21-119, limits assumed).
T1 construct: also called hFcRn
Description: Biacore SPR, pH 7.0.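 Note: test antibodies captured on a Protein L chip with human FcRn flowed over as analyte, KD obtained as the ratio of dissociation to association rate constants.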

T1 sequence (chain, as listed by the source limits assumed, chain 1 of 2): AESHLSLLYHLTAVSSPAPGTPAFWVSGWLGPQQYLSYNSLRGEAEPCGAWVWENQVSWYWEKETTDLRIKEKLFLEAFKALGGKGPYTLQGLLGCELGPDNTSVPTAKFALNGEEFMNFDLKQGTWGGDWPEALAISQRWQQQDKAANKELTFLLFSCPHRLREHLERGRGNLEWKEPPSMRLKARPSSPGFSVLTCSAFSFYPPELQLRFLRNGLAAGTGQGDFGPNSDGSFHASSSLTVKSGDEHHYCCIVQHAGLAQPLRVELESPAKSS
T1 sequence (P61769 21-119 limits assumed, chain 2 of 2): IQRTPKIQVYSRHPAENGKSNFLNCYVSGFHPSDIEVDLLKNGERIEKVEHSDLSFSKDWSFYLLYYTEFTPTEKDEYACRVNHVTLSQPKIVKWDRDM

B1: IgG1-F756 (antibody)
heavy: QVQLQESGPGLVKPSETLSLTCAVSGHSISHDHAWSWVRQPPGEGLEWIGFISYSGITNYNPSLQGRVTISRDNSKNTLYLQMNSLRAEDTAVYYCARSLARTTAMDYWGEGTLVTVSSASTKGPSVFPLAPSSKSTSGGTAALGCLVKDYFPEPVTVSWNSGALTSGVHTFPAVLQSSGLYSLSSVVTVPSSSLGTQTYICNVNHKPSNTKVDKKVEPKSCDKTHTCPPCPAPELLGGDSVFLFPPKPKDVLYISRTPEVTCVVVDVSHEDPEVKFNWYVDGVEVHNAKTKPREEQYNSTYRVVSVLTVLHQDWLNGKEYKCKVSNKALPAPIEKTISKAKGQPREPQVYTLPPSRDELTKNQVSLTCLVKGFYPSDIAVEWESNGQPENNYKTTPPVLDSDGSFFLYSKLTVDKSRWQQGNVFSCSVMHEALHYHYTQKSLSLSP
light: not shown
notes: EU numbering; copies: 2 + 2
Regarding B1, binding was put at a Kd of 370 nM.

B2: IgG1-F765 (antibody)
heavy: QVQLQESGPGLVKPSETLSLTCAVSGHSISHDHAWSWVRQPPGEGLEWIGFISYSGITNYNPSLQGRVTISRDNSKNTLYLQMNSLRAEDTAVYYCARSLARTTAMDYWGEGTLVTVSSASTKGPSVFPLAPSSKSTSGGTAALGCLVKDYFPEPVTVSWNSGALTSGVHTFPAVLQSSGLYSLSSVVTVPSSSLGTQTYICNVNHKPSNTKVDKKVEPKSCDKTHTCPPCPAPELLGGDSVFLFPPKPKDTLYISRTPEVTCVVVDVSHEDPEVKFNWYVDGVEVHNAKTKPREEQYNSTYRVVSVLQVEHADWLNGKEYKCKVSNKALPAPIEKTISKAKGQPREPQVYTLPPSRDELTKNQVSLTCLVKGFYPSDIAVEWESNGQPENNYKTTPPVLDSDGSFFLYSKLTVDKSRWQQGNVFSCSVMHEALHYHYTQKSLSLSP
light: not shown
notes: EU numbering; copies: 2 + 2
As for B2, binding was characterised by a dissociation constant (Kd) of 85 nM.

B3: IgG1-F764 (antibody)
heavy: QVQLQESGPGLVKPSETLSLTCAVSGHSISHDHAWSWVRQPPGEGLEWIGFISYSGITNYNPSLQGRVTISRDNSKNTLYLQMNSLRAEDTAVYYCARSLARTTAMDYWGEGTLVTVSSASTKGPSVFPLAPSSKSTSGGTAALGCLVKDYFPEPVTVSWNSGALTSGVHTFPAVLQSSGLYSLSSVVTVPSSSLGTQTYICNVNHKPSNTKVDKKVEPKSCDKTHTCPPCPAPELLGGDSVFLFPPKPKDTLMISRTPEVTCVVVDVSHEDPEVKFNWYVDGVEVHNAKTKPREEQYNSTYRVVSVLQVLHADWLNGKEYKCKVSNKALPAPIEKTISKAKGQPREPQVYTLPPSRDELTKNQVSLTCLVKGFYPSDIAVEWESNGQPENNYKTTPPVLDSDGSFFLYSKLTVDKSRWQQGNVFSCSVMHEALHYHYTQKSLSLSP
light: not shown
notes: EU numbering; copies: 2 + 2
Molecule B3 showed a Kd of 630 nM.

B4: IgG1-F766 (antibody)
heavy: QVQLQESGPGLVKPSETLSLTCAVSGHSISHDHAWSWVRQPPGEGLEWIGFISYSGITNYNPSLQGRVTISRDNSKNTLYLQMNSLRAEDTAVYYCARSLARTTAMDYWGEGTLVTVSSASTKGPSVFPLAPSSKSTSGGTAALGCLVKDYFPEPVTVSWNSGALTSGVHTFPAVLQSSGLYSLSSVVTVPSSSLGTQTYICNVNHKPSNTKVDKKVEPKSCDKTHTCPPCPAPELLGGPSVFLFPPKPKDTLMISRTPEVTCVVVDVSHEDPEVKFNWYVDGVEVHNAKTKPREEQYNSTYRVVSVLAVEHADWLNGKEYKCKVSNKALPAPIEKTISKAKGQPREPQVYTLPPSRDELTKNQVSLTCLVKGFYPSDIAVEWESNGQPENNYKTTPPVLDSDGSFFLYSKLTVDKSRWQQGNVFSCSVMHEALHYHYTQKSLSLSP
light: not shown
notes: EU numbering; copies: 2 + 2
B4: the Kd stood at 600 nM.

B5: IgG1-F757 (antibody)
heavy: QVQLQESGPGLVKPSETLSLTCAVSGHSISHDHAWSWVRQPPGEGLEWIGFISYSGITNYNPSLQGRVTISRDNSKNTLYLQMNSLRAEDTAVYYCARSLARTTAMDYWGEGTLVTVSSASTKGPSVFPLAPSSKSTSGGTAALGCLVKDYFPEPVTVSWNSGALTSGVHTFPAVLQSSGLYSLSSVVTVPSSSLGTQTYICNVNHKPSNTKVDKKVEPKSCDKTHTCPPCPAPELLGGDSVFLFPPKPKDWLYISRTPEVTCVVVDVSHEDPEVKFNWYVDGVEVHNAKTKPREEQYNSTYRVVSVLTVLHQDWLNGKEYKCKVSNKALPAPIEKTISKAKGQPREPQVYTLPPSRDELTKNQVSLTCLVKGFYPSDIAVEWESNGQPENNYKTTPPVLDSDGSFFLYSKLTVDKSRWQQGNVFSCSVMHEALHYHYTQKSLSLSP
light: not shown
notes: EU numbering; copies: 2 + 2
B5 had a dissociation constant Kd of 1200 nM. This Kd lies about 2-fold higher than the previous one.

B6: IgG1-F769 (antibody)
heavy: QVQLQESGPGLVKPSETLSLTCAVSGHSISHDHAWSWVRQPPGEGLEWIGFISYSGITNYNPSLQGRVTISRDNSKNTLYLQMNSLRAEDTAVYYCARSLARTTAMDYWGEGTLVTVSSASTKGPSVFPLAPSSKSTSGGTAALGCLVKDYFPEPVTVSWNSGALTSGVHTFPAVLQSSGLYSLSSVVTVPSSSLGTQTYICNVNHKPSNTKVDKKVEPKSCDKTHTCPPCPAPELLGGPSVFLFPPKPKDTLMISRTPEVTCVVVDVSHEDPEVKFNWYVDGVEVHNAKTKPREEQYNSTYRVVSVLQVEHHDWLNGKEYKCKVSNKALPAPIEKTISKAKGQPREPQVYTLPPSRDELTKNQVSLTCLVKGFYPSDIAVEWESNGQPENNYKTTPPVLDSDGSFFLYSKLTVDKSRWQQGNVFSCSVMHEALHYHYTQKSLSLSP
light: not shown
notes: EU numbering; copies: 2 + 2
Molecule B6 showed a Kd of 460 nM.

B7: IgG1-F768 (antibody)
heavy: QVQLQESGPGLVKPSETLSLTCAVSGHSISHDHAWSWVRQPPGEGLEWIGFISYSGITNYNPSLQGRVTISRDNSKNTLYLQMNSLRAEDTAVYYCARSLARTTAMDYWGEGTLVTVSSASTKGPSVFPLAPSSKSTSGGTAALGCLVKDYFPEPVTVSWNSGALTSGVHTFPAVLQSSGLYSLSSVVTVPSSSLGTQTYICNVNHKPSNTKVDKKVEPKSCDKTHTCPPCPAPELLGGPSVFLFPPKPKDTLMISRTPEVTCVVVDVSHEDPEVKFNWYVDGVEVHNAKTKPREEQYNSTYRVVSVLAVEHHDWLNGKEYKCKVSNKALPAPIEKTISKAKGQPREPQVYTLPPSRDELTKNQVSLTCLVKGFYPSDIAVEWESNGQPENNYKTTPPVLDSDGSFFLYSKLTVDKSRWQQGNVFSCSVMHEALHYHYTQKSLSLSP
light: not shown
notes: EU numbering; copies: 2 + 2
Consider B7, for which the affinity, expressed as Kd, was 640 nM. The Kd values of the last two molecules are within 1.5-fold of each other.

B8: IgG1-F758 (antibody)
heavy: QVQLQESGPGLVKPSETLSLTCAVSGHSISHDHAWSWVRQPPGEGLEWIGFISYSGITNYNPSLQGRVTISRDNSKNTLYLQMNSLRAEDTAVYYCARSLARTTAMDYWGEGTLVTVSSASTKGPSVFPLAPSSKSTSGGTAALGCLVKDYFPEPVTVSWNSGALTSGVHTFPAVLQSSGLYSLSSVVTVPSSSLGTQTYICNVNHKPSNTKVDKKVEPKSCDKTHTCPPCPAPELLGGDSVFLFPPKPKDYLYISRTPEVTCVVVDVSHEDPEVKFNWYVDGVEVHNAKTKPREEQYNSTYRVVSVLTVLHQDWLNGKEYKCKVSNKALPAPIEKTISKAKGQPREPQVYTLPPSRDELTKNQVSLTCLVKGFYPSDIAVEWESNGQPENNYKTTPPVLDSDGSFFLYSKLTVDKSRWQQGNVFSCSVMHEALHYHYTQKSLSLSP
light: not shown
notes: EU numbering; copies: 2 + 2
Regarding B8, the Kd was 1400 nM. Against the preceding molecule, the Kd is about 2.2-fold higher.

B9: IgG1-F767 (antibody)
heavy: QVQLQESGPGLVKPSETLSLTCAVSGHSISHDHAWSWVRQPPGEGLEWIGFISYSGITNYNPSLQGRVTISRDNSKNTLYLQMNSLRAEDTAVYYCARSLARTTAMDYWGEGTLVTVSSASTKGPSVFPLAPSSKSTSGGTAALGCLVKDYFPEPVTVSWNSGALTSGVHTFPAVLQSSGLYSLSSVVTVPSSSLGTQTYICNVNHKPSNTKVDKKVEPKSCDKTHTCPPCPAPELLGGPSVFLFPPKPKDTLMISRTPEVTCVVVDVSHEDPEVKFNWYVDGVEVHNAKTKPREEQYNSTYRVVSVLQVEHADWLNGKEYKCKVSNKALPAPIEKTISKAKGQPREPQVYTLPPSRDELTKNQVSLTCLVKGFYPSDIAVEWESNGQPENNYKTTPPVLDSDGSFFLYSKLTVDKSRWQQGNVFSCSVMHEALHYHYTQKSLSLSP
light: not shown
notes: EU numbering; copies: 2 + 2
Take B9: the Kd turned out to be 430 nM.

B10: IgG1-F762 (antibody)
heavy: QVQLQESGPGLVKPSETLSLTCAVSGHSISHDHAWSWVRQPPGEGLEWIGFISYSGITNYNPSLQGRVTISRDNSKNTLYLQMNSLRAEDTAVYYCARSLARTTAMDYWGEGTLVTVSSASTKGPSVFPLAPSSKSTSGGTAALGCLVKDYFPEPVTVSWNSGALTSGVHTFPAVLQSSGLYSLSSVVTVPSSSLGTQTYICNVNHKPSNTKVDKKVEPKSCDKTHTCPPCPAPELKGGPKVFLFPPKPKDTLYISRTPEVTCVVVDVSHEDPEVKFNWYVDGVEVHEAKTKPREEQYNSTYRVVSVLQVLHADWLNGKEYKCKVSNKALPAPIEKTISKAKGQPREPQVYTLPPSRDELTKNQVSLTCLVKGFYPSDIAVEWESNGQPENNYKTTPPVLDSDGSFFLYSKLTVDKSRWQQGNVFSCSVMHEALHYHYTQKSLSLSP
light: not shown
notes: EU numbering; copies: 2 + 2
With B10, the affinity, expressed as Kd, was 36 nM.

B11: IgG1-F763 (antibody)
heavy: QVQLQESGPGLVKPSETLSLTCAVSGHSISHDHAWSWVRQPPGEGLEWIGFISYSGITNYNPSLQGRVTISRDNSKNTLYLQMNSLRAEDTAVYYCARSLARTTAMDYWGEGTLVTVSSASTKGPSVFPLAPSSKSTSGGTAALGCLVKDYFPEPVTVSWNSGALTSGVHTFPAVLQSSGLYSLSSVVTVPSSSLGTQTYICNVNHKPSNTKVDKKVEPKSCDKTHTCPPCPAPELRGGPKVFLFPPKPKDTLYISRTPEVTCVVVDVSHEDPEVKFNWYVDGVEVHEAKTKPREEQYNSTYRVVSVLQVLHADWLNGKEYKCKVSNKALPAPIEKTISKAKGQPREPQVYTLPPSRDELTKNQVSLTCLVKGFYPSDIAVEWESNGQPENNYKTTPPVLDSDGSFFLYSKLTVDKSRWQQGNVFSCSVMHEALHYHYTQKSLSLSP
light: not shown
notes: EU numbering; copies: 2 + 2
On to B11, for which the Kd stood at 35 nM. The Kd values of the last two molecules are within 1.5-fold of each other.

B12: IgG1-F770 (antibody)
heavy: QVQLQESGPGLVKPSETLSLTCAVSGHSISHDHAWSWVRQPPGEGLEWIGFISYSGITNYNPSLQGRVTISRDNSKNTLYLQMNSLRAEDTAVYYCARSLARTTAMDYWGEGTLVTVSSASTKGPSVFPLAPSSKSTSGGTAALGCLVKDYFPEPVTVSWNSGALTSGVHTFPAVLQSSGLYSLSSVVTVPSSSLGTQTYICNVNHKPSNTKVDKKVEPKSCDKTHTCPPCPAPELLGGPSVFLFPPKPKDTLYISRAPEVTCVVVDVSHEDPEVKFNWYVDGVEVHNAKTKPREEQYNSTYRVVSVLTVLHQDWLNGKEYKCKVSNKALPAPIEKTISKAKGQPREPQVYTLPPSRDELTKNQVSLTCLVKGFYPSDIAVEWESNGQPENNYKTTPPVLDSDGSFFLYSKLTVDKSRWQQGNVFSCSVMHEALHYHYTQKSLSLSP
light: not shown
notes: EU numbering; copies: 2 + 2
As to B12, the dissociation constant Kd was 500 nM. Against the preceding molecule, the Kd is about 14-fold higher.

(Values after US20200199241A1 (Chugai, published 2020).)
